Test results published in PMC4041461, “Identification and characterization of RNA guanine-quadruplex binding proteins”.

What was measured:
[1] = biological target: U2AF65 (Homo sapiens, UniProt P26368 1-475); assay: SPR; SPR: 25 °C, 1:10 mixture of binding buffer (10 mM Tris-HCl pH 7.5, 150 mM KCl) and HBS-EP (10 mM HEPES pH 7.4, 150 mM NaCl, 3 mM EDTA, 0.005% P20), protein immobilized; pull-down: RNA on streptavidin beads blocked in 10 mM Tris-HCl pH 7.5, 100 mM KCl, 0.1 mM EDTA, 1 mM DTT, 0.01% Triton X-100, BSA, tRNA; extract 1 h at 30 °C, elution 400-2600 mM KCl; conditions: protein: recombinant, tags: N-terminal His-tag (pET28a), label: biotin
[2] = biological target: Δnucleolin (Homo sapiens, UniProt P19338 284-710, del1-283); assay: as above; conditions: protein: recombinant, tags: N-terminal His-tag (pET28a), label: biotin
[3] = biological target: SRSF1 (Homo sapiens, UniProt Q07955 1-248); assay: SPR; 100 nM RNA; SPR: 25 °C, 1:10 mixture of binding buffer (10 mM Tris-HCl pH 7.5, 150 mM KCl) and HBS-EP (10 mM HEPES pH 7.4, 150 mM NaCl, 3 mM EDTA, 0.005% P20), protein immobilized; pull-down: RNA on streptavidin beads blocked in 10 mM Tris-HCl pH 7.5, 100 mM KCl, 0.1 mM EDTA, 1 mM DTT, 0.01% Triton X-100, BSA, tRNA; extract 1 h at 30 °C, elution 400-2600 mM KCl; conditions: protein: recombinant; tags: N-terminal His-tag (pET28a); label: biotin; parallel G4, several variants possible
[4] = biological target: T1, EFHD2 (Homo sapiens, UniProt Q96C19 1-240); assay: as above; conditions: protein: recombinant; tags: N-terminal His-tag (pET28a); label: biotin; parallel G4, several variants possible
T1 sequence: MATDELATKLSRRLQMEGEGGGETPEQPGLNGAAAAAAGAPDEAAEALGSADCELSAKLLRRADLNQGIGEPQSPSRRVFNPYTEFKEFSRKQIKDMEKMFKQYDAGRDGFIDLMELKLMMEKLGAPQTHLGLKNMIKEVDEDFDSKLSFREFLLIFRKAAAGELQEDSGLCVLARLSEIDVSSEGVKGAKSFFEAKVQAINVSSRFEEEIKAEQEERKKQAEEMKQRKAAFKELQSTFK

[5] = parallel G4, several variants possible

Sequence of Δnucleolin (P19338 284-710, stated change not applied): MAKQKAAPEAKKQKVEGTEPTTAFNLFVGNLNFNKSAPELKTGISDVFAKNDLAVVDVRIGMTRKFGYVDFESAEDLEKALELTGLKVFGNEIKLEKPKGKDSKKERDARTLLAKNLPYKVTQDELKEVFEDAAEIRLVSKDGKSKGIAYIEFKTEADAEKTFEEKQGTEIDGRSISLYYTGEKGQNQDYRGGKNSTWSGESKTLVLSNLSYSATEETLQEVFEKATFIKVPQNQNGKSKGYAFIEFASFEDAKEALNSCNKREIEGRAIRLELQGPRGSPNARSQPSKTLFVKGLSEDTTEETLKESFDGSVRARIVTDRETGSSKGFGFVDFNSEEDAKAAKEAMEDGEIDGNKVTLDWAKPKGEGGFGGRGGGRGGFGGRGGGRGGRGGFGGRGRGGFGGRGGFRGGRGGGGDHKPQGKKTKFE
Sequence of U2AF65 (P26368 whole entry, one chain of several): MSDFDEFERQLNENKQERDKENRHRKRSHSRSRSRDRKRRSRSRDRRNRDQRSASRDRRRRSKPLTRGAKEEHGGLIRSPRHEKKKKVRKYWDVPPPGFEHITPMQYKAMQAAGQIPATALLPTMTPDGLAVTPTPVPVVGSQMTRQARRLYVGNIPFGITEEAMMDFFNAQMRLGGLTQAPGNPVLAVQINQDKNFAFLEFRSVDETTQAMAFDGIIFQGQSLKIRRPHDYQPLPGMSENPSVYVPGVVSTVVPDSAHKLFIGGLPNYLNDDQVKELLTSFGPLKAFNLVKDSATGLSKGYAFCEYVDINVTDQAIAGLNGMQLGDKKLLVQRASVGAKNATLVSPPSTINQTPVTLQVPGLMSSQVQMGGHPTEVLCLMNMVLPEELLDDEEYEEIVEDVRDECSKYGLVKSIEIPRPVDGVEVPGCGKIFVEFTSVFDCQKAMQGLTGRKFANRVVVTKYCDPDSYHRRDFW
Sequence of SRSF1 (Q07955 whole entry): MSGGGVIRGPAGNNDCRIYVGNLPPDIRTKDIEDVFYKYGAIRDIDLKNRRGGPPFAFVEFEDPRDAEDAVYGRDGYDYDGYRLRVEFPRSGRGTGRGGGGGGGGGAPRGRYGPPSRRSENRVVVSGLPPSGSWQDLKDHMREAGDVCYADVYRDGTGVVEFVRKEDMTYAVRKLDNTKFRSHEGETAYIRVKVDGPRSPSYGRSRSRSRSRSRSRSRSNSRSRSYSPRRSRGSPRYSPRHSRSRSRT

AGCCGGGGGCUGGGCGGGGACCGGGCUUGU (structured_RNA, 3' biotin) [ARPC2 GQ]
Kd [1, 5]: 1 nM | Kd [2, 5]: 0.6 nM | binding result [3]: binds | binding result [4]: binds

AGCCGUAGACUGAGCGAAGACCGAGCUUGU (ssRNA, 3' biotin) [ARPC2 mut]
Kd ([2]; no G4): 83 nM

AACGAGGGAGGGAGGGAGAGGGAGAGA (structured_RNA, 3' biotin) [MMP16 GQ]
Kd ([1]; parallel G4 (CD, UV melting)): 5 nM | Kd ([2]; parallel G4 (CD, UV melting)): 2 nM

AACGAGAGAGAGAGAGAGAGAGAGAGA (ssRNA, 3' biotin) [MMP16 mut]
Kd ([2]; no G4): 0.6 nM
